Results taken from the supplement of paper PMC9732359.
± gives the uncertainty stated by the source.

Assay: protein stability index of a GFP-peptide fusion (yeast GPS) (PSI 1-4); higher = more stable; sorted into four equal gates, so the index is relative within each strain
How it was run: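 The protein stability index combines read frequencies across sorting gates, each weighted by its gate number and then summed. To obtain those frequencies, a pooled yeast library of GFP fusions to tiled 17-residue yeast protein peptides, on a plasmid also expressing Cherry, was grown to mid-log phase in leucine-free medium. The cells were sorted into four equal gates by GFP/Cherry ratio before plasmid amplification by PCR and Illumina sequencing.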

| Sequence | protein stability index (doa10∆) | protein stability index (pdr5∆) | protein stability index (san1∆) | protein stability index (ubr1∆) |
| --- | --- | --- | --- | --- |
| SIGKNPFNKPNIETGEN [SWI3] | 3.04 ± 0.055 | 3.03 ± 0.048 | 2.87 ± 0.037 | 2.97 ± 0.044 |
| NNTVDPGFDEFQLIDMK [CSI1] | 3.18 ± 0.064 | 3.12 ± 0.062 | 3.31 ± 0.038 | 3.21 ± 0.041 |
| LIQSYSLLDKPDEAIEK [FAS1] | 2.82 ± 0.087 | 2.75 ± 0.084 | 2.14 ± 0.087 | 2.79 ± 0.082 |
| DKLKDIVGQTSRTVTPA [ITC1] | 3.22 ± 0.059 | 3.13 ± 0.046 | 3.19 ± 0.047 | 2.96 ± 0.052 |
| VEDTLHVNKRKRVSGTS [YOR098C/NUP1] | 1.42 ± 0.078 | 1.92 ± 0.13 | 1.73 ± 0.15 | 1.52 ± 0.077 |
| SATSKPAFSFGAKPEEK [YJL041W/NSP1] | 3.1 ± 0.15 | 3.31 ± 0.22 | 3.16 ± 0.11 | 2.55 ± 0.14 |
| GVDAMSVDDLKKLNKNK [RPL1A] | 3.33 ± 0.078 | 3.14 ± 0.12 | 3.25 ± 0.058 | 3.73 ± 0.11 |
| PYPGSPMHSIMPNSSLQ [DSN1] | 2.85 ± 0.091 | 2.88 ± 0.052 | 2.63 ± 0.057 | 2.83 ± 0.034 |
| CSKAMGDLASLVLLNGR [RPP1] | 2.84 ± 0.061 | 2.9 ± 0.05 | 2.62 ± 0.058 | 2.73 ± 0.037 |
| VHTIIAGLDEDGKGAVY [PRE7] | 3.63 ± 0.16 | 3.41 ± 0.099 | 3.35 ± 0.093 | 3.32 ± 0.093 |
| LSATGTRSAKKMVIAEL [YJR042W/NUP85] |  |  | 2.97 ± 0.15 |  |
| NNSAPNNTNNANSSITP [YJL041W/NSP1] | 3.01 ± 0.089 | 2.97 ± 0.11 | 2.73 ± 0.11 | 2.72 ± 0.11 |
| IAIIKDTSDIIVDPTAE [RRP46] | 1.86 ± 0.044 | 1.92 ± 0.047 | 1.71 ± 0.078 | 1.61 ± 0.046 |
| YLKDNITLLTRQRELLI [GRR1] | 2.15 ± 0.061 | 2.25 ± 0.069 | 1.84 ± 0.076 | 1.76 ± 0.052 |
| YEKNFEATLESKLKEEE [ESC2] | 3.09 ± 0.12 | 3.13 ± 0.17 | 3.03 ± 0.071 | 3.18 ± 0.13 |
| KDVKARIAAGDGDDDDE [QCR9] | 1.83 ± 0.13 | 2.29 ± 0.19 | 2.12 ± 0.074 | 2.24 ± 0.12 |
| YSPTSPSYSPTSPSYSP [RPO21] | 2.756 ± 0.027 | 2.976 ± 0.026 | 2.87 ± 0.024 | 2.868 ± 0.02 |
| QKNMNDLLRSQLTSLEK [YIL149C/MLP2] | 2.89 ± 0.073 | 2.17 ± 0.056 | 1.96 ± 0.075 | 2.35 ± 0.05 |
| ENDTTLVKTKELIKNYI [FAS1] | 3.04 ± 0.13 | 2.85 ± 0.15 | 2.83 ± 0.13 | 2.68 ± 0.058 |
| DAVKDFKLGKFNYVAVG [QCR2] | 3.2 ± 0.24 | 1.52 ± 0.14 |  |  |
| KVLRKFRVQSQSNYGIY [NUT1] | 1.85 ± 0.053 | 2.29 ± 0.071 | 1.34 ± 0.11 | 2.3 ± 0.14 |
| LTLKEAELLVLKILKQV [PUP2] | 2.05 ± 0.29 | 2.4 ± 0.26 |  | 1.63 ± 0.25 |

| Sequence | protein stability index (doa10∆) | protein stability index (pdr5∆) | protein stability index (san1∆) | protein stability index (ubr1∆) |
| --- | --- | --- | --- | --- |
| AKKTSTSTDGKKRSKAR [HTB1] | 3.2 ± 0.25 | 3.12 ± 0.17 |  |  |
| AAFKDIAKRQFKEILTV [RRP40] | 2.27 ± 0.051 | 2.54 ± 0.062 | 2.58 ± 0.062 | 2.55 ± 0.05 |
| SRPDILSKIKFPESIWK [YCG1] | 2.77 ± 0.049 | 2.04 ± 0.037 | 1.92 ± 0.058 | 2.06 ± 0.029 |
| VKDKQSKVSDDSESESG [RPN8] | 1.97 ± 0.11 | 2.78 ± 0.13 |  | 2.9 ± 0.13 |
| SGDESNVISSKDWELEA [YDL116W/NUP84] | 3.45 ± 0.08 | 3.36 ± 0.052 | 3.45 ± 0.06 | 3.41 ± 0.066 |
| DTNNEADLMALENATWT [SNF12] | 2.58 ± 0.074 | 3.18 ± 0.11 | 2.64 ± 0.087 | 2.94 ± 0.09 |
| YQLNDRNVTKGDIVRML [SMC3] | 2.72 ± 0.24 | 3.03 ± 0.17 | 2.84 ± 0.14 | 3.02 ± 0.11 |
| CLEACSFILSSLEDPQV [YDL116W/NUP84] | 2.68 ± 0.048 | 2.71 ± 0.054 | 2.87 ± 0.038 | 2.75 ± 0.042 |
| DNVNSTTGSIFEKDLMA [BRN1] | 2.98 ± 0.067 | 3.01 ± 0.068 | 3.07 ± 0.071 | 2.99 ± 0.041 |
| ILEEKTDLHLPKKEYDD [NSL1] | 1.76 ± 0.057 | 2.39 ± 0.12 | 2.21 ± 0.12 | 2.66 ± 0.061 |
| NLENMSIQDTSTVAKNV [YCG1] | 3.01 ± 0.052 | 3.12 ± 0.051 | 3.1 ± 0.04 | 3.21 ± 0.041 |
| KLHVNWNLNATKPNVLN [SIN4] | 2.94 ± 0.17 | 2.86 ± 0.11 | 2.85 ± 0.11 | 2.93 ± 0.098 |
| DHASIRRGYQVYREVCA [CYT1] | 1.87 ± 0.06 | 1.5 ± 0.052 | 1.27 ± 0.09 | 1.71 ± 0.036 |
| EKGSWEQLSPQDVLQML [BRR2] | 3.05 ± 0.12 | 3.27 ± 0.15 | 3.42 ± 0.12 | 3.03 ± 0.088 |
| YHFPIFNKYADPTLTTT [RPN4] | 2.05 ± 0.037 | 2.22 ± 0.048 | 2.24 ± 0.048 | 2.3 ± 0.036 |
| KGDGMTSAVASIGSIYQ [RPN1] | 2.67 ± 0.28 | 3.14 ± 0.2 | 2.57 ± 0.23 | 3.03 ± 0.14 |
| IPFPDHNQSPRNTYQSA [RPB2] | 2.97 ± 0.083 | 3.06 ± 0.067 | 3.22 ± 0.056 | 2.78 ± 0.063 |
| IVAQSEVEVSTRDLFDL [RPO31] | 3.07 ± 0.074 | 3.34 ± 0.083 | 3.3 ± 0.059 | 3.2 ± 0.067 |
| WCQEAFPSSETTSLNPI [BRR2] | 3.23 ± 0.11 | 3.33 ± 0.097 | 3.48 ± 0.11 | 3.23 ± 0.17 |
| AIRRDARYNWICDPVHK [RPL15A] | 2.71 ± 0.1 | 3.37 ± 0.12 | 3.25 ± 0.11 | 3.18 ± 0.076 |
| LMAQIFFGPTYYQRLRH [RPB2] | 2.02 ± 0.035 | 1.81 ± 0.032 | 2.08 ± 0.048 | 2.04 ± 0.031 |
